Ends that are not written are not given here.
B1: YARAAARQARA-P50 (peptide)
chain: YARAAARQARAAKPNEGAIVEVALEGYYKDKLFDQRELRFEIGEGENLDLPYGLERAIQRM

Legend:
Tau-P301L = biological target: T1, Tau-P301L (Homo sapiens, UniProt P10636, P618L); assay: Thioflavine T fluorescence assay of seeded Tau-P301L aggregation; type: biochemical; conditions: for Tau-P301L aggregate formation (ThT fluorescence intensity): Tau-P301L 5 μM with Tau seeds, peptide 50 μM, fluorescence at 24 h, ±SEM, n=3, remaining aggregation
T1 construct: made in house; host or cells: Escherichia coli BL21
T1 sequence (P10636 1-441 isoform P10636-8 P301L): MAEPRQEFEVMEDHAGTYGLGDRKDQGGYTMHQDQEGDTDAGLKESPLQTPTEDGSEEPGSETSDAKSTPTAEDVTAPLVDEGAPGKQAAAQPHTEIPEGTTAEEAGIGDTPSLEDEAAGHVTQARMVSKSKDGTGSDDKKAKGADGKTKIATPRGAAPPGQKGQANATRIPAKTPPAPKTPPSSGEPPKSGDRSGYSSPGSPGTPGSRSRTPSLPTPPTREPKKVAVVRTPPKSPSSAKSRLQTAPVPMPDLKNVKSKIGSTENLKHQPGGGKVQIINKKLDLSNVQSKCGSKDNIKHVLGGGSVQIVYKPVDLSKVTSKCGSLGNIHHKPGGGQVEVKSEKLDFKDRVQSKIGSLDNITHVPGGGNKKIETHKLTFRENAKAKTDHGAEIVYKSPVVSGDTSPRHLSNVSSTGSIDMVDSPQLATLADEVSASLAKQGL
Excerpt: Protein purification. Recombinant wild-type Tau and Tan with P301L mutation proteins was expressed in Escherichia coli (E. coli, BL21) and purified as described; Goedert M, Jakes R (1990) Expression of separate isoforms of human tau protein: correlation with the tau pattern in brain and effects on tubulin polymerization. EMBO J 9, 4225-4230. Combs B, Tiernan C T, Hamel C, Kanaan N M (2017) Production of recombinant tau oligomers in vitro. Methods Cell Biol 141, 45-64.
Effect of P35 on Tau-P30IL aggregation. Tau-P301L protein is used in all aggregation assays. Tau seeds are prepared during a first polymerization: 15UM of monomeric Tau-P301L was incubated at 37° C. in polymerization buffer (PI-buffer): NaH2PO4 25 mM, Na2HPO4 25 mM, NaCl 25 mM, EDTA SmM PH 6,6 with heparin 7.5 μM, Thioflavine-T 50 μM, and Dithiothreitol (DTT) 0.3 mM in a final volume of 100 μl. Fluorescence was monitored every 30 minutes during 25 hours at 480 nm (excitation at 450 nm) using Perkin-Elmer Endvision spectrophotometer. After polymerization, samples (100 μl) were centrifuged at 20,000 g for 1 hour at 4° C. The pellets were resuspended in 100 μl of PI-buffer and sonicated (Branson sonicator) at 40%, 3 times of 1 second, in order to obtain small pre-formed Tau fibrils used as seeds for the second polymerization assay. A volume of 18% of Tau seeds was pre-incubated in the same buffer of the first polymerization, with or without polypeptides, during 1 h at 37° C. Subsequently, 5 μM of monomeric Tau-P301L was added and fluorescence was monitored in the same conditions.

[1] = tested on: hTau-P301S mouse DRG neurons; assay: Western blot of sarkosyl-insoluble Tau fraction of peptide-treated DRG neurons; type: cell-based; conditions: peptide 200 nM in cell medium for 15 days, compared to scramble control
Experimental: DRG culture and western-blot analyses. DRG neurons were collected from hTau-P301S mice spinal cords as described by Sleigh and dissociated with collagenase (ThermoFisher Scientific, 17100-017) 2900 U/mL during 90 min followed by 0.1% trypsin (Life Technologies, 15090-046) 3 mM EDTA containing DNaseI (50 μg/mL; Sigma-Aldrich, 04536282001) for 5 min; Sleigh J N, Weir G A, Schiavo G, A simple, step-by-step dissection protocol for the rapid isolation of mouse dorsal root ganglia. BMC RES NOTES, 2016, 9, 82.
Cell treatment was stopped using 1×PBS (VWR, X0515-500) supplemented with 2% horse serum (ThermoFisher Scientific, 16050-122), and DRG neurons were dissociated with a Pasteur pipette. Cells were then centrifuged for 5 min at 1,300 g and the pellet was resuspended in DMEM (Fisher Scientific, 12077549) with 9% fetal bovine serum. After filtration on a 0.40 μm filter followed by centrifugation 5 min at 1,300 g. the pellet was resuspended in neurobasal medium complemented with B27 (50×), L-glutamine (100×) (Life Technologies, 11530536 and 25030024 respectively), NGF 2.5 S (27 ng/ml; ThermoFisher, 13257-019) and distributed in 2 wells of a 6-well culture plate. Cell cultures were maintained for 15 days in vitro (DIV) and the cell medium complemented with mitomycine C (Sigma-Aldrich, M4287) and 5-Fluorodeoxy-uridine (Sigma-Aldrich, F0503) was changed twice a week. Cells were harvested by scraping, centrifuged for 10 min at 200 g and the pellet was homogenized using PotterElvehjem 18 in cold extraction buffer (50 mM Tris-HCl, pH 7.5, 100 mM NaCl, 0.5% SDS, 2 mM CaCl2, 2 mM MgCl2) supplemented with a cocktail of protease and phosphatase inhibitors (Roche, 11836145001). […] Each sample was analyzed on a 10% SDS Page gel and transferred onto iBlot™ Gel Transfer membranes (Invitrogen, IB23001, IB24002). […] Images were recorded with the GeneGnome5 (Syngene). Quantification was performed using Genetools analysis software (Syngene).
DRGs treatment with peptides. […] After cell lysis, lysates were then analyzed by western-blot as described in “DRG culture and western-blot analyses”.

Molecule	Tau-P301L aggregate formation (ThT fluorescence intensity) (Tau-P301L)	insoluble Tau forms / Tau-P301S aggregation (western blot, sarkosyl-insoluble fraction) [1]	further results
AKPNEGAIVEVALEGYYKDKLFDQRELRFEIGEGE (Ac-AKPNEGAIVEVALEGYYKDKLFDQRELRFEIGEGE; not fully specified (C-terminus); listed as Homo sapiens) [P35]	80.6%	–	–
AKPNEGAIVEVALEGYYKDKLFDQRELRFEIGEGENLDLPYGLERAIQRM (listed as Homo sapiens) [P50]	–	–	effect on Tau-P301L aggregation in vitro (in words) (Tau-P301L; in vitro incubation of Tau-P301L with peptide, data not shown): comparable effects than P35
IRFKVLEGLYGEVDEAKEGNEAKAEGLQEYPDFIR [P35sc, reference compound]	91.4%	–	–
YARAAARQARA-P35 (YARAAARQARAAKPNEGAIVEVALEGYYKDKLFDQRELRFEIGEGE) [YARA-P35]	–	tends to show a decrease of Tau-P301S aggregation	–
B1	–	decrease of insoluble Tau forms	insoluble Tau forms / Tau-P301S aggregation (western blot, sarkosyl-insoluble fraction) ([1]; listed as YARA-PSO): tends to show a decrease of Tau-P301S aggregation
